T1: 重组人Trop2-avi-his抗原蛋白 (recombinant human Trop2 extracellular domain with C-terminal avi-tag and 6×his-tag) (human, UniProt P09758 27-274)
T1 construct: The protein was coated unbiotinylated on the ELISA plate; A form biotinylated at the avi-tag was used for panning and for CAR staining; also called 重组人Trop2蛋白; Trop2蛋白
T1 sequence: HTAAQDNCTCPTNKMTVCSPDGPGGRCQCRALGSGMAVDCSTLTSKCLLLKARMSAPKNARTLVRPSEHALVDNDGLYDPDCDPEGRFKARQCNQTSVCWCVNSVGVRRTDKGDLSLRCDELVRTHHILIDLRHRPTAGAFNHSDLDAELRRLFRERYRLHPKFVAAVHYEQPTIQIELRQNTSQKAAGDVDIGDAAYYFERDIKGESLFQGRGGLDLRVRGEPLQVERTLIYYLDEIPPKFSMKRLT

B1: L3G5 anti-human Trop2 scFv (scFv, V domains shown)
VH: QLQLQESGPGLLKPSETLSLICTVSGGSISSHYWSWIRQTPGKGLEWIGWIHSSGITNYNPSLMGRVTMSVDTSKNQFPLKVNSVTAADTAVYYCARGLRLTDDAFDIWGQGTMVTVSS
VL: QSALTQPASVSGSPGQSITISCTGTSSDVGGYNYVSWYQQHPGKAPKLMIHDVSNRPSGVSNRFFGSKSGNTASLTISGLQAEDEADYYCSSYTSSNTLAFGGGTKLTVL
notes: Tested as an scFv in a periplasmic extract of TG1 (pComb3sc phagemid) and detected with anti-HA HRP
B2: L2C9 anti-human Trop2 scFv (scFv, V domains shown)
VH: EVQLLESGGGVVQPGMSLRVSCAASGFTFSNYGMHWVRQAPGKGLEWVGIIWSDGTYTYYGDSVQGRFTISRDNSENTLHLQMNSLRAEDTAVYYCAKSLTPLGGSFRIGDWGQGTLVTVSS
VL: QSVLTQPPSVSGAPGQRVTISCTGSSSNIGAGYDVHWYQQLPGTAPKLLIYDNTNRPSGVPDRFSGSKSGTSASLAITGLQADDEGDYYCQSYDSRLNALVFGGGTKLTVL
notes: as for B1
B3: K2F5 anti-human Trop2 scFv (scFv, V domains shown)
VH: QVQLVQSGAEVKKPGESLTISCKSSGDNFSTNWIGWVRQMPGKGLEWMGIIYPGDSDSRYSPSFEGQVTISADKSISTAYLQWSSLKASDTAMYYCARYQGSTTPFDYWGQGTTVTVSS
VL: not shown
notes: as for B1
B4: L2C8 anti-human Trop2 scFv (scFv, V domains shown)
VH: EVQLVESGGALVQRGGSLRLSCSASGFSVRNNYITWVRQAPGKGLEWVAIVFPGGSSYHADSVKGRFTISRDLSKNSVYLEMNSLREDDTGVYFCARDSGSPLWRGHFQYWGQGTTVTVSS
VL: QSVLTQPPSVSGAPGQRVTISCTGSSANIGAGYDVHWYQQLPGTAPKLLIYDNNKRPSGIPDRFSGSNSGTSATLGITGLQTGDEADYYCGTWDTSLSAWVFGGGTRLTVL
notes: as for B1

The assay deals with T1, 重组人Trop2-avi-his抗原蛋白 (recombinant human …). Briefly: ELISA: recombinant human Trop2 coated at 100 ng/well, scFv periplasmic extract, anti-HA HRP detection, OD450. (In general: In an ELISA, binding on a coated surface is turned into a signal by an enzyme label.)
As for B1, the binding result is recorded as “binds”.

Consider B2, for which the binding result is recorded as “binds”.

On to B3, for which the binding result is given as “binds”.

Take B4: the binding result is on record as “binds”.

The values above are taken from patent publication CN117264062A (SHANGHAI HRAIN BIOTECHNOLOGY CO LTD, dated 2023).
